Measurements taken from article PMC3439491.

Molecular target: MA-MADS5 full length (A) (Musa acuminata (AAA group, Cavendish subgroup, cv. Giant governor)) (UniProt E9NW24)
Test: EMSA saturation
Details: EMSA with 2 ug recombinant protein or 15 ug nuclear extract, buffer by reference to earlier work; circularization pre-incubation: 60 mM KCl, 8 mM HEPES pH 7.9 …

Chain of MA-MADS5 full length (A) (Musa acuminata (AAA group, Cavendish subgroup, cv. Giant governor)) (E9NW24 entry or part of it): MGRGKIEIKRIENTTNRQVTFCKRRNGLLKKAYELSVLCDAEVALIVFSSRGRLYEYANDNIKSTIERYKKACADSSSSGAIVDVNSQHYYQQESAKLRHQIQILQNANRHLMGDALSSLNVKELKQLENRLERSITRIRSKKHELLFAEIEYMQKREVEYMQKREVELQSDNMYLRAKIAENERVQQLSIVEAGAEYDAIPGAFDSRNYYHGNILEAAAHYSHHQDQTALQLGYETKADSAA

c-fos SRE, pAS76 EcoRV fragment showed a Kd of 10.6 nM.
